# Results from patent US7148014 (University of Pennsylvania, dated 2006).
# B1: anti-FcγRIII mAb, 3G8 (antibody)
# chain 1: QVTLKESGPGILQPSQTLSLTCSFSGFSLRTSGMGVGWIRQPSGKGLEWLAHIWWDDDKRYNPALKSRLTISKDTSSNQVFLKIASVDTADTATYYCAQINPAWFAYWGQGTLVTVS
# chain 2: DIVLTQSPASLAVSLGQRATISCKASQSVDFDGDSFMNWYQQKPGQPPKLLIYTTSNLESGIPARFSASGSGTDFTLNIHPVEEEDTATYYCQQSNEDPYTFGGGTKLELK
# Biological target: T1, FcγRIIIA α + γ (WT) on transfected COS-1 cells (human; mouse, UniProt P08637 17-254; P20491 19-86)
# T1 construct: whole, on cells; also called FcγRIIIA-γγ; FcγRIIIA α and wild type γ
# Assay: flow cytometry, COS-1 cells cotransfected with α and γ
# T1 sequence (P08637 17-254, chain 1 of 2): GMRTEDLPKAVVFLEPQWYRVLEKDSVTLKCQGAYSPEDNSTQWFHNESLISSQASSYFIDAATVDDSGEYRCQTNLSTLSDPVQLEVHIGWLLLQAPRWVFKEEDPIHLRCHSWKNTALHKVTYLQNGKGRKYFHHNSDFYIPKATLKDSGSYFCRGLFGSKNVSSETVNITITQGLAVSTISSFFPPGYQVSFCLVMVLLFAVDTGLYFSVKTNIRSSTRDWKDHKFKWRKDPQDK
# T1 sequence (P20491 19-86, chain 2 of 2): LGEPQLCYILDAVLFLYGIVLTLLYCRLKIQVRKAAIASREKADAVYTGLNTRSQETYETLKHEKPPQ
binder,measurement,value
B1,fold increase of mean fluorescence intensity over IgG isotype control or mock-transfected cells,15 fold
